The source of these data is publication PMC5796856 (Molecular microbiology, 2018).

The target in data set [1] is FtsA (Escherichia coli, UniProt P0ABH0, K86A). Put plainly: mant fluorescence titration. The format is binding.
In data set [2] the target is T1, FtsA (Escherichia coli, UniProt P0ABH0).
T1 sequence (P0ABH0 1-420): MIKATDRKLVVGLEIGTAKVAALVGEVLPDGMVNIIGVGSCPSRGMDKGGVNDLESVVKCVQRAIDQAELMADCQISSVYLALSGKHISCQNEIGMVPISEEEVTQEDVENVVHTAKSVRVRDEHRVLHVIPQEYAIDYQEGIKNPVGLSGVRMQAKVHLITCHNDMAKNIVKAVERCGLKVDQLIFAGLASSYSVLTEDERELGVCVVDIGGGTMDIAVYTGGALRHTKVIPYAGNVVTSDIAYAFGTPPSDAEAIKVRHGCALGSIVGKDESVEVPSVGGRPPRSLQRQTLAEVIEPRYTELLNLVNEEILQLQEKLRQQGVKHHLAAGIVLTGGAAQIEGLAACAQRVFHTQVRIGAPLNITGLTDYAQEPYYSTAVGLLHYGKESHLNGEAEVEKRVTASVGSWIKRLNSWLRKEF
Nature of the data set: mant fluorescence titration. The format is binding.

Another data set has as its target FtsA (E. coli) (UniProt P0ABH0). Nature of the data set: co-sedimentation.
The data set “SEC” concerns the molecule itself. Put plainly: SEC.
The target in data set [3] is T2, FtsA (E. coli, UniProt P0ABH0 1-420).
T2 sequence (looked up): T1 sequence (P0ABH0 1-420)
Nature of the data set: confocal fluorescence microscopy of recruitment to vesicles in vitro.

Data set [4] deals with the molecule itself. Put plainly: sedimentation of polymers by ultracentrifugation.

Numbering of substitutions follows the chain as printed. In names and notes the source's numbering stands.

FtsA (Escherichia coli, UniProt P0ABH0, K86A), sequence (P0ABH0 whole entry K86A): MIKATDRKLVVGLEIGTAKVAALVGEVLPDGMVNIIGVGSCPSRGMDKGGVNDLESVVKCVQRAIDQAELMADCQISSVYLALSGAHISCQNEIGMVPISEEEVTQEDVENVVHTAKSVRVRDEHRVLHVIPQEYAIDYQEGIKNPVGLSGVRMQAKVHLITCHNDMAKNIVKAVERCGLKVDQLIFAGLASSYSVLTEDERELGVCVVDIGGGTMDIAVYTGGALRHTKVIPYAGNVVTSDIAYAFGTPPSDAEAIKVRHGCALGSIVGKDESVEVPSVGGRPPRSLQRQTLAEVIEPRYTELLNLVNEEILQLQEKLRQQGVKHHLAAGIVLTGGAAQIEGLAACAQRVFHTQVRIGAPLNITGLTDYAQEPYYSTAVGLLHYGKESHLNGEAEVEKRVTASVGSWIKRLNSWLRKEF

Regarding `CNc1ccccc1C(=O)O[C@H]1[C@@H](O)[C@H](n2cnc3c(N)ncnc32)O[C@@H]1CO[P@@](=O)(O)O[P@](=O)(O)OP(=O)(O)O` [mant-ATP], the Kd on FtsA [1] is 27.9 ± 0.5 µM; at FtsA [2], 26.2 ± 3 µM.

“FtsZ(R379E) (from UniProt P0A9A6 1-383) (natural protein)” had a percent of FtsZ in the pellet with FtsA (E. coli) of 35.6%.

B1: FtsA(ΔMTS) (domain or fragment, E. coli, UniProt P0ABH0 1-404, looked up)
chain: MIKATDRKLVVGLEIGTAKVAALVGEVLPDGMVNIIGVGSCPSRGMDKGGVNDLESVVKCVQRAIDQAELMADCQISSVYLALSGKHISCQNEIGMVPISEEEVTQEDVENVVHTAKSVRVRDEHRVLHVIPQEYAIDYQEGIKNPVGLSGVRMQAKVHLITCHNDMAKNIVKAVERCGLKVDQLIFAGLASSYSVLTEDERELGVCVVDIGGGTMDIAVYTGGALRHTKVIPYAGNVVTSDIAYAFGTPPSDAEAIKVRHGCALGSIVGKDESVEVPSVGGRPPRSLQRQTLAEVIEPRYTELLNLVNEEILQLQEKLRQQGVKHHLAAGIVLTGGAAQIEGLAACAQRVFHTQVRIGAPLNITGLTDYAQEPYYSTAVGLLHYGKESHLNGEAEVEKRVTAS
For B1, the “stoichiometry N” value in “SEC” came out at 2.

B2: FL-FtsZ (natural protein, E. coli, UniProt P0A9A6 1-383, looked up)
chain: MFEPMELTNDAVIKVIGVGGGGGNAVEHMVRERIEGVEFFAVNTDAQALRKTAVGQTIQIGSGITKGLGAGANPEVGRNAADEDRDALRAALEGADMVFIAAGMGGGTGTGAAPVVAEVAKDLGILTVAVVTKPFNFEGKKRMAFAEQGITELSKHVDSLITIPNDKLLKVLGRGISLLDAFGAANDVLKGAVQGIAELITRPGLMNVDFADVRTVMSEMGYAMMGSGVASGEDRAEEAAEMAISSPLLEDIDLSGARGVLVNITAGFDLRLDEFETVGNTIRAFASDNATVVIGTSLDPDMNDELRVTVVATGIGMDKRPEITLVTNKQVQQPVMDRYQQHGMAPLTQEQKPVAKVVNDNAPQTAKEPDYLDIPAFLRKQAD
modifications: Alexa Fluor 488 label
Consider B2, for which, in the data set with FtsA [3], the binding result is on record as “binds”.

B3: FtsZ(R379E) (natural protein, E. coli, UniProt P0A9A6 1-383, looked up)
chain: B2 chain with R379E
Consider B3, for which the binding result in data set [4] is on record as “binds”.

B4: FtsZ (natural protein, E. coli, UniProt P0A9A6 1-383, looked up)
chain: B2 chain
B4: in data set [4], the binding result is “binds”.
